A word on the amount remaining: it is what is left of the initial amount, in per cent. As a reminder, the IC50 is the point on the concentration scale where inhibition reaches its midpoint.

The text below walks through data of patent publication EP4471049A1 (Zealand Pharma A/S, priority 2023, dated 2024).

*1 amine or outer side, *2 acyl side, *3 side chain or, on linkers, in order; H or OH if unused. Where a SMILES comes first, the peptide text is derived from it. Bridges are numbered along the chain shown (N, C = ends). Primed or numbered codes have the meaning given here. Where no end group is shown, it is not given here. [ ]: non-standard residue; d: D form. 4‑Aminomethyl‑phenylacetyl = 4-aminomethyl-phenylacetyl unit, its amine closes the lactam, O=C(Cc1ccc(CN[*:1])cc1)[*:2]; Q(pyrrolidin)(3) = Gln whose side-chain amide N is in a pyrrolidine ring, O=C(CC[C@H](N[*:1])C(=O)[*:2])N1CCCC1; 2Nal = N[C@@H](Cc1ccc2ccccc2c1)C(=O)O; AEF = NCCOc1ccc(C[C@H](N)C(=O)O)cc1; X1 = O=C(Cc1ccc(CN[*:1])cc1)[*:2]; 3Pal = N[C@@H](Cc1cccnc1)C(=O)O; Cit = NC(=O)NCCC[C@H](N)C(=O)O; αMeL = CC(C)C[C@](C)(N)C(=O)O; NMeS = CN[C@@H](CO)C(=O)O; Orn = NCCC[C@H](N)C(=O)O; Q(Me) = not defined here; Dab = NCC[C@H](N)C(=O)O; βAla = NCCC(=O)O

A short description of data set [1]: Peptide stability in simulated intestinal fluid (SIF). The settings on record: pig, simulated intestinal fluid (SIF) with porcine pancreatin, 37 °C, pH 6.8, porcine pancreatin 10 g/L, 10 µM; for remaining at 4 h, 10 µM: read-out: SIF (% remaining 4 h). It counts as in vitro ADME. As for the experimental part:
SGF was prepared by dissolving sodium chloride (0.2 g) in 50 mL of water. A volume of 0.7 mL of 10 M HCl was added to adjust the pH of the solution to 1.2 and the volume made up to 100 mL with water. […] SIF was prepared by dissolving monobasic potassium phosphate (0.68 g) in 50 mL of water and adjusting the pH to 6.8 with 1 M NaOH. The volume was subsequently made up to 100 mL with water. 200 mg porcine pancreatin (P1625, Sigma Aldrich) was gently dissolved into 20 mL preheated (37 °C) solution (10 g/L) immediately prior to the incubation.
The incubation was performed at 37 °C with gentle shaking. […] After the last timepoint, the sampling plate was mixed for 10 min on a shaking table and centrifuged 10 min at 2200 g. 70 µL resulting supernatant was diluted with 150 µL water, mixed and centrifugated before analysis by liquid chromatography high resolution mass spectrometry. […] Percent remaining at each timepoint was calculated relative to timepoint zero based on absolute peak areas.
Compounds with a SIF stability (after 4 h) above 70% are considered highly SIF stable.

For the next data set, the target named is T1, human IL-23R (Homo sapiens, UniProt Q5VWK5).
T1 sequence (Q5VWK5 22-629): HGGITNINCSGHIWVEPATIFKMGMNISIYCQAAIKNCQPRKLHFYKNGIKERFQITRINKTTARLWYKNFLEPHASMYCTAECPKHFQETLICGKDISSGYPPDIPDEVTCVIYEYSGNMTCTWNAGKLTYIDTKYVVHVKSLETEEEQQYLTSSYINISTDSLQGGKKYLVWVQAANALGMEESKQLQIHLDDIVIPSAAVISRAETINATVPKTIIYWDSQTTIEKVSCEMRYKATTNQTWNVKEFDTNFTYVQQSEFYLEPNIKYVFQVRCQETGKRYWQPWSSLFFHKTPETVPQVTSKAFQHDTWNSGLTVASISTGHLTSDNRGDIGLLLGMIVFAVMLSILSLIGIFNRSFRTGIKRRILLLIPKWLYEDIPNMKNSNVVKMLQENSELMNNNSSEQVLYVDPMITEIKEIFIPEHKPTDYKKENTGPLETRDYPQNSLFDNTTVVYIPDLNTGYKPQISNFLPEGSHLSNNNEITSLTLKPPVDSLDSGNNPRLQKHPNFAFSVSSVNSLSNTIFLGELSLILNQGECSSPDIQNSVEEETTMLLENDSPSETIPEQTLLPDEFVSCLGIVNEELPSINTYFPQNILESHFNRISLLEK
Description: biochemical. An outline of the steps: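 BRET displacement of a TAMRA-labelled reference compound from N-terminal Nanoluc-IL-23R fusion protein in membranes from stably transfected HEK293 cells. Incubation 2 h at room temperature, then Nanoluc substrate was added and the TAMRA/Nanoluc ratio read. IC50 and maximal displacement came from 4-parameter logistic fits.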

The target of data set [2] is T2, Nluc-IL23R fusion protein (human, UniProt Q5VWK5 22-629).
T2 construct: range 22-629; expressed with a secretion signal in HEK293 cells; used as crude membrane preparation; also called hIL-23R; human IL-23R; not shown: Nanoluc protein from the expression plasmid N1371 (Promega), N-terminal of IL-23R
T2 sequence (looked up): T1 sequence (Q5VWK5 22-629)
As to the kind of experiment: BRET competition vs TAMRA-labelled peptide, Nluc-IL23R membranes. A general note: In BRET a luciferase serves as donor, and the signal depends on an acceptor being close.

As for `CNC(=O)[C@H](Cc1cccnc1)NC(=O)[C@H](CO)NC(=O)[C@@H]1CCC(=O)NCc2ccc(cc2)CC(=O)N[C@@H](CO)C(=O)N[C@H]2CCC(=O)NCC[C@H](NC(=O)[C@H](CCC(N)=O)NC(=O)[C@H](Cc3c[nH]c4ccccc34)NC2=O)C(=O)N[C@@H](Cc2ccc(OCCN)cc2)C(=O)N[C@@H](Cc2ccc3ccccc3c2)C(=O)N[C@@](C)(CC(C)C)C(=O)N1` [Compound 31, [4-Aminomethyl-phenylacetyl](1c)*SE(2c)WQ[Dab](2c)[Y(2-aminoethoxy)][2-Nal][2-Me-Leu]E(1c)S[3-(3-Pyridyl)-Ala]-[NHMe]] ([X1]SEWQ[Dab][AEF][2Nal][αMeL]ES[3Pal]-NHMe; lactam 3-6, N-10), the amount remaining at 4 h, 10 µM in data set [1] is 41%. Moreover, at human IL-23R, the “% displacement (hIL-23R binding)” value is listed as 97% and the midpoint of inhibition, the IC50, lay at 0.012 nM. `CNC(=O)[C@H](Cc1cccnc1)NC(=O)[C@H](CCN)NC(=O)[C@@H]1CCC(=O)NCc2ccc(cc2)CC(=O)N[C@@H](C)C(=O)N[C@H]2CCC(=O)NCC[C@H](NC(=O)[C@H](CCC(N)=O)NC(=O)[C@H](Cc3c[nH]c4ccccc34)NC2=O)C(=O)N[C@@H](CCc2ccccc2)C(=O)N[C@@H](Cc2ccc3ccccc3c2)C(=O)NC(C)(C)C(=O)N1` [Compound 41, [4-Aminomethyl-phenylacetyl](1c)*AE(2c)WQ[Dab](2c)[hPhe][2-Nal][Aib]E(1c)[Dab][3-(3-Pyridyl)-Ala]-[NHMe]]: in data set [1] (1 h), the share remaining at 1 h, 10 µM is 100%. In addition, the share remaining at 4 h, 10 µM in data set [1] was 95%. Further, at human IL-23R, the “% displacement (hIL-23R binding)” value is recorded as 104% and inhibition was half-maximal at 0.28 nM (IC50).

B1: Ref 141 (peptide)
peptide: [4‑Aminomethyl‑phenylacetyl][NMeS]CWQC[AEF][2Nal][αMeL]E[Dab]-NH2
modifications: lactam N-10; bridge 3-6; not fully specified (bridges); printed as [4-Aminomethyl-phenylacetyl](1c)*[N-Me-Ser]C(2a)WQC(2a)[Y(2-aminoethoxy)][2-Nal][2-Me-Leu]E(1c)[Dab]-[NH2]
B1 had a % displacement (hIL-23R binding) in data set [2] of 102%.

B2: Compound 1 (peptide)
peptide: [βAla][3Pal]SCWQC[AEF][2Nal][αMeL]E[dR]-NH2
modifications: lactam N-11; linker 4-7 via 1,3‑dithio‑propan‑2‑one
For B2, the % displacement (hIL-23R binding) in data set [2] was 105%.

B3: Compound 25 (peptide)
peptide: [4‑Aminomethyl‑phenylacetyl]SEW[Dab](Ac)[Dab][AEF][2Nal][αMeL]E[Dab][3Pal]-NHMe
modifications: lactam (positions not given here); lactam 3-6; not fully specified (bridges)
Turning to B3, in data set [2], the % displacement (hIL-23R binding) was found to be 93% and the IC50 was found to be 0.011 nM.

B4: Compound 27 (peptide)
peptide: [4‑Aminomethyl‑phenylacetyl]SEW[Q(pyrrolidin)(3)][Dab][AEF][2Nal][αMeL]E[Dab][3Pal]-NHMe
modifications: lactam N-10, 3-6
On to B4, for which, in data set [2], the % displacement (hIL-23R binding) is 97% and the IC50 came out at 0.017 nM.

B5: Compound 40 (peptide)
peptide: [4‑Aminomethyl‑phenylacetyl]AEWQ[Dab][AEF][2Nal][αMeL]ES[3Pal]-NHMe
modifications: lactam N-10, 3-6
SMILES: CNC(=O)[C@H](Cc1cccnc1)NC(=O)[C@H](CO)NC(=O)[C@@H]1CCC(=O)NCc2ccc(cc2)CC(=O)N[C@@H](C)C(=O)N[C@H]2CCC(=O)NCC[C@H](NC(=O)[C@H](CCC(N)=O)NC(=O)[C@H](Cc3c[nH]c4ccccc34)NC2=O)C(=O)N[C@@H](Cc2ccc(OCCN)cc2)C(=O)N[C@@H](Cc2ccc3ccccc3c2)C(=O)N[C@@](C)(CC(C)C)C(=O)N1
In turn, B5 showed a % displacement (hIL-23R binding) in data set [2] of 100%.

B6: Compound 30 (peptide)
peptide: [4‑Aminomethyl‑phenylacetyl]SEW[Q(2Me)][Dab][AEF][2Nal][αMeL]E[Dab][3Pal]-NHMe
modifications: lactam N-10, 3-6
Take B6: the % displacement (hIL-23R binding) in data set [2] came to 104%.

B7: Compound 34 (peptide)
peptide: [4‑Aminomethyl‑phenylacetyl]SEWQ[Dab][AEF][2Nal][αMeL]EH[3Pal]-NHMe
modifications: lactam N-10, 3-6
SMILES: CNC(=O)[C@H](Cc1cccnc1)NC(=O)[C@H](Cc1c[nH]cn1)NC(=O)[C@@H]1CCC(=O)NCc2ccc(cc2)CC(=O)N[C@@H](CO)C(=O)N[C@H]2CCC(=O)NCC[C@H](NC(=O)[C@H](CCC(N)=O)NC(=O)[C@H](Cc3c[nH]c4ccccc34)NC2=O)C(=O)N[C@@H](Cc2ccc(OCCN)cc2)C(=O)N[C@@H](Cc2ccc3ccccc3c2)C(=O)N[C@@](C)(CC(C)C)C(=O)N1
Turning to B7, in data set [2], the % displacement (hIL-23R binding) was 90%.

B8: Compound 33 (peptide)
peptide: [4‑Aminomethyl‑phenylacetyl]SEWQ[Dab][AEF][2Nal][αMeL]EQ[3Pal]-NHMe
modifications: lactam N-10, 3-6
SMILES: CNC(=O)[C@H](Cc1cccnc1)NC(=O)[C@H](CCC(N)=O)NC(=O)[C@@H]1CCC(=O)NCc2ccc(cc2)CC(=O)N[C@@H](CO)C(=O)N[C@H]2CCC(=O)NCC[C@H](NC(=O)[C@H](CCC(N)=O)NC(=O)[C@H](Cc3c[nH]c4ccccc34)NC2=O)C(=O)N[C@@H](Cc2ccc(OCCN)cc2)C(=O)N[C@@H](Cc2ccc3ccccc3c2)C(=O)N[C@@](C)(CC(C)C)C(=O)N1
Consider B8, for which the % displacement (hIL-23R binding) in data set [2] is 92%.

B9: Compound 26 (peptide)
peptide: [4‑Aminomethyl‑phenylacetyl]SEW[Cit][Dab][AEF][2Nal][αMeL]E[Dab][3Pal]-NHMe
modifications: lactam (positions not given here); lactam 3-6; not fully specified (bridges)
For B9, in data set [2], the % displacement (hIL-23R binding) worked out at 95%.

B10: Compound 29 (peptide)
peptide: [4‑Aminomethyl‑phenylacetyl]SEW[Q(Me)][Dab][AEF][2Nal][αMeL]E[Dab][3Pal]-NHMe
modifications: lactam N-10, 3-6; reading uncertain
Take B10: in data set [2], the % displacement (hIL-23R binding) is 96% and the half-inhibitory concentration (IC50) is 0.011 nM.

B11: Compound 24 (peptide)
peptide: [4‑Aminomethyl‑phenylacetyl]SEWK(Ac)[Dab][AEF][2Nal][αMeL]E[Dab][3Pal]-NHMe
modifications: lactam N-10, 3-6
SMILES: CNC(=O)[C@H](Cc1cccnc1)NC(=O)[C@H](CCN)NC(=O)[C@@H]1CCC(=O)NCc2ccc(cc2)CC(=O)N[C@@H](CO)C(=O)N[C@H]2CCC(=O)NCC[C@H](NC(=O)[C@H](CCCCNC(C)=O)NC(=O)[C@H](Cc3c[nH]c4ccccc34)NC2=O)C(=O)N[C@@H](Cc2ccc(OCCN)cc2)C(=O)N[C@@H](Cc2ccc3ccccc3c2)C(=O)N[C@@](C)(CC(C)C)C(=O)N1
For the molecule B11, the % displacement (hIL-23R binding) in data set [2] is 97%.

B12: Compound 31 (peptide)
peptide: [4‑Aminomethyl‑phenylacetyl]SEWQ[Dab][AEF][2Nal][αMeL]ES[3Pal]-NHMe
modifications: lactam N-10, 3-6
Take B12: the % displacement (hIL-23R binding) in data set [2] was 97%.

B13: Compound 28 (peptide)
peptide: [4‑Aminomethyl‑phenylacetyl]SEW[Orn][Dab][AEF][2Nal][αMeL]E[Dab][3Pal]-NHMe
modifications: lactam N-10, 3-6
SMILES: CNC(=O)[C@H](Cc1cccnc1)NC(=O)[C@H](CCN)NC(=O)[C@@H]1CCC(=O)NCc2ccc(cc2)CC(=O)N[C@@H](CO)C(=O)N[C@H]2CCC(=O)NCC[C@H](NC(=O)[C@H](CCCN)NC(=O)[C@H](Cc3c[nH]c4ccccc34)NC2=O)C(=O)N[C@@H](Cc2ccc(OCCN)cc2)C(=O)N[C@@H](Cc2ccc3ccccc3c2)C(=O)N[C@@](C)(CC(C)C)C(=O)N1
In data set [2], B13 returned a % displacement (hIL-23R binding) of 97% and an IC50 of 0.011 nM.
